Experimental data reported in patent US20190322984A1 (MUSC FOUNDATION FOR RESEARCH DEVELOPMENT, published 2019).

Target: T1, mouse IL-2Rα on mouse effector CD8+ T cells (mouse, UniProt P01590 22-268)
T1 construct: whole, on cells; also called mIL-2Rα; CD25
T1 sequence (looked up): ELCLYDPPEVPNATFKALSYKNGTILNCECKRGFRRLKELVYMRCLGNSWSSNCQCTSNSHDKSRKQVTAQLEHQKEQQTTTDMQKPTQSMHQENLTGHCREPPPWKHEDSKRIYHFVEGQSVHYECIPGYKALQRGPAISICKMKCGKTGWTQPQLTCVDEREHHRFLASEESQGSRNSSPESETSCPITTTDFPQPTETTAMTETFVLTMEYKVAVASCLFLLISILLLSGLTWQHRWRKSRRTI
Experiment: flow cytometry, surface IL-2 staining of mIL-2-pulsed polyclonal effector CD8+ T cells
Protocol: FIGS. 3a-3g—IL-2Rα facilitates sustained IL-2 signaling through creation of an extracellular reservoir and recycling. (a) Presence of IL-2 on the surface of polyclonal T cells depends on IL-2Rα. Polyclonal effector CD8⁺ T cells were pulsed for 2 hours with or without mIL-2. Prior to (and during) the pulse, T cells were incubated with anti-IL-2Rα mAb (PC61). Cells were then washed and stained for surface IL-2. (b) Time course of surface IL-2 on polyclonal T cells after reculture at 37° C. (c) Levels of pSTAT5 in Tc1 cells that were pulsed with IL-2, washed, and recultured at 37° C. with or without anti-IL-2 mAb (clone S4B6 or 1A12). (d) Recycling of IL-2 on effector T cells. Pmel-1 Tc1 cells were incubated with hIL-2 or mIL-2 at 37° C. for 2 hours. As indicated, cells were then acid washed and recultured at 37° C. for 90 minutes in the presence of anti-hIL-2 mAb conjugated to Alexa647. Cells were then washed, fixed, and assayed by flow cytometry. (e) Recycling of IL-2 on pulsed cells while mixed with non-pulsed cells. Pmel-1 Tc1 cells were pulsed with hIL-2 at either 4° C. or 37° C. for 2 hours, and then acid washed. Cells were then mixed with non-pulsed CFSE-labeled Tc1 cells. The mixed cells were recultured at 37° C. for 45 minutes in the presence of anti-hIL-2 mAb conjugated to Alexa647. Cells were then washed, fixed, and assayed by flow cytometry. […]

binding result: binds
B1: Mouse (m) IL-2 (ligand, UniProt P04351 21-169, looked up)
chain: APTSSSTSSSTAEAQQQQQQQQQQQQHLEQLLMDLQELLSRMENYRNLKLPRMLTFKFYLPKQATELKDLQCLEDELGPLRHVLDLTQSKSFQLEDAENFISNIRVTVVKLKGSDNTFECQFDDESATVVDFLRRWIAFCQSIISTSPQ
notes: Bought recombinant cytokine; used at 200 ng/ml in pulse assays; also called mouse IL-2
